# From US20240409598A1, “PEPTIDE INHIBITORS OF INTERLEUKIN-23 RECEPTOR” (Janssen Biotech, Inc., priority 2021, published 2024)
# *1 amine or outer side, *2 acyl side, *3 side chain or, on linkers, in order; H or OH if unused. Bridges are numbered along the chain shown (N, C = ends). Primed or numbered codes have the meaning given here. [ ]: non-standard residue; d: D form. AEF(G) = 4-(2-guanidinoethoxy)phenylalanine, N=C(N)NCCOc1ccc(C[C@H](N[*:1])C(=O)[*:2])cc1; Trp(7-Me) = Cc1cccc2c(C[C@H](N)C(=O)O)c[nH]c12; 3Pal(5-Me) = Cc1cncc(C[C@H](N)C(=O)O)c1; 2Nal = N[C@@H](Cc1ccc2ccccc2c1)C(=O)O; 3Pal = N[C@@H](Cc1cccnc1)C(=O)O; Pen = CC(C)(S)[C@H](N)C(=O)O; αMeC = C[C@](N)(CS)C(=O)O; AEF′ = not defined here; Abu = CC[C@H](N)C(=O)O; THP = not defined here; Sar = CNCC(=O)O
# T1: interleukin-23 receptor (IL-23R) (UniProt Q5VWK5 24-629, limits assumed)
# T1 sequence (looked up): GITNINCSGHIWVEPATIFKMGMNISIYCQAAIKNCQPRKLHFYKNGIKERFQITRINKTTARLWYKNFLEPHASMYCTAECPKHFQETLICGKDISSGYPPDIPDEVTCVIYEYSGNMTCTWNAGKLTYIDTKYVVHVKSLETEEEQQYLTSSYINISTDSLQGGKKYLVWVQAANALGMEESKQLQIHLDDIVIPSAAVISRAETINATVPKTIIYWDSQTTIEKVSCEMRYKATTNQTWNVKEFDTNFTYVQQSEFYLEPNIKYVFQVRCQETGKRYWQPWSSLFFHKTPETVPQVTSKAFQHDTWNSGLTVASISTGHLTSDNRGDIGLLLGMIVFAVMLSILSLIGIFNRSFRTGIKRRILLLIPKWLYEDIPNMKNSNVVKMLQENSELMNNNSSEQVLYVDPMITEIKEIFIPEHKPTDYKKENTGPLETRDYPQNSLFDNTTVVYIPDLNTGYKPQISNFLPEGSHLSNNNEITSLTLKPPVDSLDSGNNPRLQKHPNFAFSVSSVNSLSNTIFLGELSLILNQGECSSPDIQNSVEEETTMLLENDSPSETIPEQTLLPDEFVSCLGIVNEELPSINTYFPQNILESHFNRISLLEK
# Columns and labels:
# [1] = system: peripheral blood mononuclear cells (PBMCs); test: PBMC pSTAT3 Assay; type: cell-based; conditions: PBMCs from healthy donors; IL-23 5 ng/ml; 30 minutes stimulation
# Procedure: Cryopreserved peripheral blood mononuclear cells (PBMCs) from healthy donors were thawed and washed twice in ImmunoCult-XF T cell expansion medium (XF-TCEM) supplemented with CTL anti-aggregate wash. The cells were counted, resuspended at 2×10^5 cells per mL XF-TCEM supplemented with penicillin/streptomycin and 100 ng/ml […] (BioLegend, 579404), and cultured in tissue culture flasks coated with anti-CD3 (eBioscience, 16-0037-85 or BD Pharmingen, 555329) at 37° C. in 5% CO2. On day 4 of culture, PBMCs were collected, washed twice in RPMI-1640 supplemented with 0.1% BSA (RPMI-BSA), and incubated in RPMI-BSA in upright tissue culture flasks for 4 hours at 37° C. in 5% CO2. Following this ‘starvation,’ a total of 6×10^4 cells in 30 μL RPMI-BSA was transferred into each well of a 384-well plate pre-spotted with peptide or DMSO. The cells were incubated for 30 minutes prior to the addition of IL-23 at a final concentration of 5 ng/ml. The cells were stimulated with cytokine for 30 minutes at 370C in 5% CO2, transferred onto ice for 10 minutes, and lysed. Cell lysates were stored at −80° C. until phosphorylated STAT3 was measured using the phospho-STAT panel kit (Meso Scale Discovery, K15202D).
# [2] = biological target: T1, interleukin-23 receptor (IL-23R); test: cell-based or functional assay
# [3] = biological target: T1, interleukin-23 receptor (IL-23R); test: cell-based or functional assay; remark: listed apart in the source
Molecule,IC50 [1],"IC50, IL23R Reporter Assay [2]",PBMC pSTAT3 IC50 [3]
MeCO-r-Pen-N-T-7MeW-K(Ac)-Pen-AEF-2Nal-THP-E-N-5MePyridinAla-Sar-CONH2 [compound 345],0.0076 nM,,
MeCO-r-Abu (1)-N-T-W-K(Ac)-aMeC (1)-AEF-2Nal-THP-E-N-3Pya-Sar-CONH2 [compound 478],0.015 nM,,
Ac-[dR][Pen]NT[Trp(7-Me)]K(Ac)[Pen][AEF′][2Nal][THP]EN[3Pal(5-Me)][Sar]-NH2 (disulfide 2-7; reading uncertain; also: printed as MeCO-r-Pen-N-T-7MeW-K(Ac)-Pen-AEF-2Nal-THP-E-N-5MePyridinAla-Sar-CONH2) [Compound 345],,5 nM,7.6 pM
Ac-[Pen]NT[Trp(7-Me)]K(Ac)[Pen][AEF(G)][2Nal][THP]EN[3Pal][Sar]-NH2 (disulfide 1-6; reading uncertain; also: printed as MeCO-Pen-N-T-7MeW-K(Ac)-Pen-AEF(G)-2Nal-THP-E-N-3Pya-Sar-CONH2) [Compound 477],,91 nM,5.5 pM
Ac-[dR][Abu]NTWK(Ac)[αMeC][AEF′][2Nal][THP]ENX[Sar]-NH2 (thioether 2-7; not fully specified (residue 13); printed as MeCO-r-Abu (1)-N-T-W-K(Ac)-aMeC (1)-AEF-2Nal-THP-E-N-3Pya-Sar-CONH2) [Compound 478],,,15 pM
